This is an account of results in US7132258 (UNIVERSITY OF MASSACHUSETTS, dated 2006).

B3: 35S-labeled hRARα (in vitro translated) (receptor, human, UniProt P10276 1-462, looked up)
chain: MASNSSSCPTPGGGHLNGYPVPPYAFFFPPMLGGLSPPGALTTLQHQLPVSGYSTPSPATIETQSSSSEEIVPSPPSPPPLPRIYKPCFVCQDKSSGYHYGVSACEGCKGFFRRSIQKNMVYTCHRDKNCIINKVTRNRCQYCRLQKCFEVGMSKESVRNDRNKKKKEVPKPECSESYTLTPEVGELIEKVRKAHQETFPALCQLGKYTTNNSSEQRVSLDIDLWDKFSELSTKCIIKTVEFAKQLPGFTTLTIADQITLLKAACLDILILRICTRYTPEQDTMTFSDGLTLNRTQMHNAGFGPLTDLVFAFANQLLPLEMDDAETGLLSAICLICGDRQDLEQPDRVDMLQEPLLEALKVYVRKRRPSRPHMFPKMLMKITDLRSISAKGAERVITLKMEIPGSMPPLIQEMLENSEGLDTLSGQPGGGGRDGGGLAPPPGSCSPSLSPSSNRSSPATHSP
notes: Made in reticulocyte lysate; also called 35S-RAR

For assay [1], the target named is T1, RAC3.1 (yeast two-hybrid clone, RAC3 amino acids 401-1204) as Gal4 AD fusion (human, UniProt Q9Y6Q9 401-1204).
T1 construct: Order of the fusion (Gal4 AD at the N-terminus) follows the vector; also called Gal4 AD fusion (RAC3.1)
T1 sequence: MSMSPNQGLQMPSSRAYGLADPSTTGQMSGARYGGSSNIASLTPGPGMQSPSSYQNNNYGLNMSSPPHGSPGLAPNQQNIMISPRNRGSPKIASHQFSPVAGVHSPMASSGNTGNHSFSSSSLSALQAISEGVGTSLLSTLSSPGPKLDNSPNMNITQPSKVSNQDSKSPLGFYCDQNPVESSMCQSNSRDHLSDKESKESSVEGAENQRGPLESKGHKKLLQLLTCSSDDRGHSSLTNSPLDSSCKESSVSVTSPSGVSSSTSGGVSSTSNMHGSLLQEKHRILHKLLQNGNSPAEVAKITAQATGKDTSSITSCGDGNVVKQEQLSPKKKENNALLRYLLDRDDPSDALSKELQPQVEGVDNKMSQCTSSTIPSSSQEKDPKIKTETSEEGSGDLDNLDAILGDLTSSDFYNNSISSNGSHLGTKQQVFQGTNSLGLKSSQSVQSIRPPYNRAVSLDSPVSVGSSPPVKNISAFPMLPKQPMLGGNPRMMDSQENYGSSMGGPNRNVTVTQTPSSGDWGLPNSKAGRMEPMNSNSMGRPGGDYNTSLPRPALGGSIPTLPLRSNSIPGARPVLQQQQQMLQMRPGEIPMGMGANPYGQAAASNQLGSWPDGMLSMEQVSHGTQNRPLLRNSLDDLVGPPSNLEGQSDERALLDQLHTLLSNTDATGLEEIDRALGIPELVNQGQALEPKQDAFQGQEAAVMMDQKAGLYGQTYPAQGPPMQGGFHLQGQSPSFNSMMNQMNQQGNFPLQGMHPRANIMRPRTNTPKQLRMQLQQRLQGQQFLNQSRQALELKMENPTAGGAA
Kind of assay: yeast two-hybrid, β-galactosidase ONPG assay, 1 µM ligand.

Assay [2] concerns the target B3. As to the kind of experiment: far-Western, GST-RAC3-RID on the filter, 35S-labeled receptor, 1 µM all-trans retinoic acid.
Assay [3] concerns the target T2, full-length RAC3 (in vitro translated, 35S-labeled or unlabeled) (human, UniProt Q9Y6Q9 2-1424).
T2 construct: Made in reticulocyte lysate; also called 35S-RAC3
As to the kind of experiment: trimeric far-Western: unlabeled full-length RAC3 held on CBP fragments C and D, then 35S-labeled RAR, with ligand.

In assay [4] the target is T3, VP16 AD-full-length hRARα fusion (human, UniProt P10276 1-462).
T3 construct: mature; also called VP16-RAR
T3 sequence: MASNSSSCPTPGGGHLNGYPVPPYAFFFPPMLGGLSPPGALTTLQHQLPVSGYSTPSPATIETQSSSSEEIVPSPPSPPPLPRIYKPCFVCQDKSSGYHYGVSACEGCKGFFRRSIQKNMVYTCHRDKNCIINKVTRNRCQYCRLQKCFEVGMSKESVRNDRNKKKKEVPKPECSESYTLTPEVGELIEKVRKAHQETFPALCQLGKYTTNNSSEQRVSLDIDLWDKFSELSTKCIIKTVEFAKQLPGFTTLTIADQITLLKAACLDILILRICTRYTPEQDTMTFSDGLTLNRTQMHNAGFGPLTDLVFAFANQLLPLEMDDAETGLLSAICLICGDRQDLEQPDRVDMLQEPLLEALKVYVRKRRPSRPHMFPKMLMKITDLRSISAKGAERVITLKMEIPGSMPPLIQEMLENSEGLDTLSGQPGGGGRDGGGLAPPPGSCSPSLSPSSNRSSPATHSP
As to the kind of experiment: mammalian two-hybrid, luciferase reporter, with or without 1 µM atRA. On the technique in general: Reporter assays use an easily measured gene product as a stand-in for the process of interest.

Assay [5] has as its target T1, RAC3.1 (yeast two-hybrid clone, RAC3 …). Kind of assay: yeast two-hybrid, β-galactosidase liquid ONPG assay.
Assay [6] shares this target. As to the kind of experiment: yeast two-hybrid, with or without 1 µM ligand.
Assay [7] has the same target. As to the kind of experiment: yeast two-hybrid screen for RAR-interacting proteins, Gal4 DBD-full-length hRARα as bait, HIS3 and LacZ reporters.

T2 sequence (Q9Y6Q9 other isoform, or with tags, fused parts or gaps limits assumed): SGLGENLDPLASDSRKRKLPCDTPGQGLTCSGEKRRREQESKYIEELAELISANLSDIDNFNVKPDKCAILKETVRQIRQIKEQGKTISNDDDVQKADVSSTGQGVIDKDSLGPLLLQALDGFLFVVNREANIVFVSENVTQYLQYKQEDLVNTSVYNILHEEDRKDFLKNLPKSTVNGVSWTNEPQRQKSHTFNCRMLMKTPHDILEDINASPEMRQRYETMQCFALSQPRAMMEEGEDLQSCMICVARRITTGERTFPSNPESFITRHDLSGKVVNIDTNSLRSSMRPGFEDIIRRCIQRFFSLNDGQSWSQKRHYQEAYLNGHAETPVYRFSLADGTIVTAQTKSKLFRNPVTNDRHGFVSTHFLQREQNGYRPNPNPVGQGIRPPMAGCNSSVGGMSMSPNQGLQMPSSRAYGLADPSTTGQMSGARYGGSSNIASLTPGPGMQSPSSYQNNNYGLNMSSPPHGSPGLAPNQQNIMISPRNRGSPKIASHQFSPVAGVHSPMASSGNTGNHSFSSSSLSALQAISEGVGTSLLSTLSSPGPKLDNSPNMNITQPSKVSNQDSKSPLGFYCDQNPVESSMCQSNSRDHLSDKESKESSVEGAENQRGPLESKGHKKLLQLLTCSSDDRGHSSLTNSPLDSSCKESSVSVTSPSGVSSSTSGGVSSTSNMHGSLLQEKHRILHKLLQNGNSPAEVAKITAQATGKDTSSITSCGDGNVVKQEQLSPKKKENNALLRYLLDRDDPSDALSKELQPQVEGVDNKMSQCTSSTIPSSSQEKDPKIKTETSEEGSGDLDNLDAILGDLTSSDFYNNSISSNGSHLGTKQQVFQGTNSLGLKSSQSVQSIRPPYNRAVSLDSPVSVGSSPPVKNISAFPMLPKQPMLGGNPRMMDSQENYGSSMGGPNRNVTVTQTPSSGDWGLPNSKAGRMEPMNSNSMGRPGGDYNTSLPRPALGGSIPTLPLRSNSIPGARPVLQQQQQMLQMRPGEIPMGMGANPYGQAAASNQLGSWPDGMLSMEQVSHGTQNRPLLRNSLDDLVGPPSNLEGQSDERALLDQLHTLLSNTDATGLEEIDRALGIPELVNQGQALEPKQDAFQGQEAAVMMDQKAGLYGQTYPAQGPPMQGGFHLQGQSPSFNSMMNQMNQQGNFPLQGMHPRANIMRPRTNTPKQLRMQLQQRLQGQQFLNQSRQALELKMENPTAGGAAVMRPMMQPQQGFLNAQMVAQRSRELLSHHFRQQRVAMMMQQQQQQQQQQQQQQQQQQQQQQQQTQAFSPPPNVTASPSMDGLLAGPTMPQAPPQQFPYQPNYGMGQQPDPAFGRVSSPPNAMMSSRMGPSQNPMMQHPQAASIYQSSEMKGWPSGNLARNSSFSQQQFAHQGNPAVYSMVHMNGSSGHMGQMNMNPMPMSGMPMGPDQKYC

B1: Gal4 DBD fusion of full-length hRXRα (receptor, UniProt P04386 1-147, looked up)
chain: MKLLSSIEQACDICRLKKLKCSKEKPKCAKCLKNNWECRYSPKTKRSPLTRAHLTEVESRLERLEQLFLLIFPREDLDMILKMDSLQDIKALLTGLFVQDNVNKDAVTDRLASVETDMPLTLRQHRISATSSSEESSNKGQRQLTVSMDTKHFLPLDFSTQVNSSLTSPTGRGSMAAPSLHPSLGPGIGSPGQLHSPISTLSSPINGMGPPFSVISSPMGPHSMSVPTTPTLGFSTGSPQLSSPMNPVSSSEDIKPPLGLNGVLKVPAHPSGNMASFTKHICAICGDRSSGKHYGVYSCEGCKGFFKRTVRKDLTYTCRDNKDCLIDKRQRNRCQYCRYQKCLAMGMKREAVQEERQRGKDRNENEVESTSSANEDMPVERILEAELAVEPKTETYVEANMGLNPSSPNDPVTNICQAADKQLFTLVEWAKRIPHFSELPLDDQVILLRAGWNELLIASFSHRSIAVKDGILLATGLHVHRNSAHSAGVGAIFDRVLTELVSKMRDMQMDKTELGCLRAIVLFNPDSKGLSNPAEVEALREKVYASLEAYCKHKYPEQPGRFAKLLLRLPALRSIGLKCLEHLFFFKLIGDTPIDTFLMEMLEAPHQMT
notes: domain: Gal4 DBD;mature
B1: the binding result in assay [1] is “binds”.

B2: GST-RAC3-RID fusion (other)
chain: LESKGHKKLLQLLTCSSDDRGHSSLTNSPLDSSCKESSVSVTSPSGVSSSTSGGVSSTSNMHGSLLQEKHRILHKLLQNGNSPAEVAKITAQATGKDTSSITSCGDGNVVKQEQLSPKKKENNALLRYLLDRDDPSDALS
notes: Purified from DH5α cells, separated by SDS-PAGE, blotted, denatured and renatured on the filter; also called GST-RID fusion; not shown: glutathione S-transferase (GST) module
Take B2: in assay [2], the binding result is on record as “binds”.
With B3, in assay [3], the binding result is listed as “binds”.

B4: RAC3 amino acids 401-695 as GAL4 DBD fusion (pCMX-Gal) (other)
chain: MKLLSSIEQACDICRLKKLKCSKEKPKCAKCLKNNWECRYSPKTKRSPLTRAHLTEVESRLERLEQLFLLIFPREDLDMILKMDSLQDIKALLTGLFVQDNVNKDAVTDRLASVETDMPLTLRQHRISATSSSEESSNKGQRQLTVSMSMSPNQGLQMPSSRAYGLADPSTTGQMSGARYGGSSNIASLTPGPGMQSPSSYQNNNYGLNMSSPPHGSPGLAPNQQNIMISPRNRGSPKIASHQFSPVAGVHSPMASSGNTGNHSFSSSSLSALQAISEGVGTSLLSTLSSPGPKLDNSPNMNITQPSKVSNQDSKSPLGFYCDQNPVESSMCQSNSRDHLSDKESKESSVEGAENQRGPLESKGHKKLLQLLTCSSDDRGHSSLTNSPLDSSCKESSVSVTSPSGVSSSTSGGVSSTSNMHGSLLQEKHRILHKLLQNGNSP
notes: domain: GAL4 DBD
With B4, the binding result in assay [4] is listed as “no binding”.

B5: SNF1 (other, UniProt P06782 1-633, looked up)
chain: MSSNNNTNTAPANANSSHHHHHHHHHHHHHGHGGSNSTLNNPKSSLADGAHIGNYQIVKTLGEGSFGKVKLAYHTTTGQKVALKIINKKVLAKSDMQGRIEREISYLRLLRHPHIIKLYDVIKSKDEIIMVIEYAGNELFDYIVQRDKMSEQEARRFFQQIISAVEYCHRHKIVHRDLKPENLLLDEHLNVKIADFGLSNIMTDGNFLKTSCGSPNYAAPEVISGKLYAGPEVDVWSCGVILYVMLCRRLPFDDESIPVLFKNISNGVYTLPKFLSPGAAGLIKRMLIVNPLNRISIHEIMQDDWFKVDLPEYLLPPDLKPHPEEENENNDSKKDGSSPDNDEIDDNLVNILSSTMGYEKDEIYESLESSEDTPAFNEIRDAYMLIKENKSLIKDMKANKSVSDELDTFLSQSPPTFQQQSKSHQKSQVDHETAKQHARRMASAITQQRTYHQSPFMDQYKEEDSTVSILPTSLPQIHRANMLAQGSPAASKISPLVTKKSKTRWHFGIRSRSYPLDVMGEIYIALKNLGAEWAKPSEEDLWTIKLRWKYDIGNKTNTNEKIPDLMKMVIQLFQIETNNYLVDFKFDGWESSYGDDTTVSNISEDEMSTFSAYPFLHLTTKLIMELAVNSQSN
Turning to B5, in assay [5], the binding result is listed as “no binding”.

B6: VDR364* (LBD of hVDR truncated at amino acid 364) as Gal4 DBD fusion (receptor, UniProt P04386 1-147, looked up)
chain: MKLLSSIEQACDICRLKKLKCSKEKPKCAKCLKNNWECRYSPKTKRSPLTRAHLTEVESRLERLEQLFLLIFPREDLDMILKMDSLQDIKALLTGLFVQDNVNKDAVTDRLASVETDMPLTLRQHRISATSSSEESSNKGQRQLTVSMKEFILTDEEVQRKREMILKRKEEEALKDSLRPKLSEEQQRIIAILLDAHHKTYDPTYSDFCQFRPPVRVNDGGGSHPSRPNSRHTPSFSGDSSSSCSDHCITSSDMMDSSSFSNLDLSEEDSDDPSVTLELSQLSMLPHLADLVSYSIQKVIGFAKMIPGFRDLTSEDQIVLLKSSAIEVIMLRSNESFTMDDMSWTCGNQDYKYRVSDVTKAGHSLELIEPLIKFQVGLKKLNLHEEEHVLLMAICIVSPDRPGVQDAALIEAIQDRLSNTLQ
notes: domain: Gal4 DBD;domain: LBD of hVDR truncated at amino acid 364
Consider B6, for which the binding result in assay [6] is given as “no binding”.

B7: RAC3 amino acids 401-624 as GAL4 DBD fusion (pCMX-Gal) (other)
chain: MKLLSSIEQACDICRLKKLKCSKEKPKCAKCLKNNWECRYSPKTKRSPLTRAHLTEVESRLERLEQLFLLIFPREDLDMILKMDSLQDIKALLTGLFVQDNVNKDAVTDRLASVETDMPLTLRQHRISATSSSEESSNKGQRQLTVSMSMSPNQGLQMPSSRAYGLADPSTTGQMSGARYGGSSNIASLTPGPGMQSPSSYQNNNYGLNMSSPPHGSPGLAPNQQNIMISPRNRGSPKIASHQFSPVAGVHSPMASSGNTGNHSFSSSSLSALQAISEGVGTSLLSTLSSPGPKLDNSPNMNITQPSKVSNQDSKSPLGFYCDQNPVESSMCQSNSRDHLSDKESKESSVEGAENQRGPLESKGHKKLLQL
notes: domain: GAL4 DBD
Take B7: the binding result in assay [4] is on record as “no binding”.

B8: Gal4 DBD fusion of full-length human RARα (receptor, UniProt P04386 1-147, looked up)
chain: MKLLSSIEQACDICRLKKLKCSKEKPKCAKCLKNNWECRYSPKTKRSPLTRAHLTEVESRLERLEQLFLLIFPREDLDMILKMDSLQDIKALLTGLFVQDNVNKDAVTDRLASVETDMPLTLRQHRISATSSSEESSNKGQRQLTVSMASNSSSCPTPGGGHLNGYPVPPYAFFFPPMLGGLSPPGALTTLQHQLPVSGYSTPSPATIETQSSSSEEIVPSPPSPPPLPRIYKPCFVCQDKSSGYHYGVSACEGCKGFFRRSIQKNMVYTCHRDKNCIINKVTRNRCQYCRLQKCFEVGMSKESVRNDRNKKKKEVPKPECSESYTLTPEVGELIEKVRKAHQETFPALCQLGKYTTNNSSEQRVSLDIDLWDKFSELSTKCIIKTVEFAKQLPGFTTLTIADQITLLKAACLDILILRICTRYTPEQDTMTFSDGLTLNRTQMHNAGFGPLTDLVFAFANQLLPLEMDDAETGLLSAICLICGDRQDLEQPDRVDMLQEPLLEALKVYVRKRRPSRPHMFPKMLMKITDLRSISAKGAERVITLKMEIPGSMPPLIQEMLENSEGLDTLSGQPGGGGRDGGGLAPPPGSCSPSLSPSSNRSSPATHSP
notes: domain: Gal4 DBD;mature; also called full-length hRARα; pGBT-hRARα
Take B8: the binding result in assay [7] is given as “binds”.
